Experimental data published in patent publication US20110294217, “DNA NICKING ENZYME FROM A HOMING ENDONUCLEASE THAT STIMULATES SITE-SPECIFIC GENE CONVERSION” (FRED HUTCHINSON CANCER RESEARCH CENTER, published 2011).
Residue numbers refer to the chain shown, from its start.

T1: I-AniI K227M/Q171K (catalytically inactive) (Aspergillus nidulans, UniProt P03880 P03880:235-488, F80K,L233K,Q171K,K227M)
T1 sequence: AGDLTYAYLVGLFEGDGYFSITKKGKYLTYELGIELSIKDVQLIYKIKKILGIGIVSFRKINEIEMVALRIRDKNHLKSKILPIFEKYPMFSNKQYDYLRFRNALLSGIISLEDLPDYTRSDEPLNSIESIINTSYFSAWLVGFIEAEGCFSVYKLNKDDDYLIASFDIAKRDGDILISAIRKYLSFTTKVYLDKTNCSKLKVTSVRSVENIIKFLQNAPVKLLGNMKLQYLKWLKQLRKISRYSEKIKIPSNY

T2: I-AniI K227M nickase (Aspergillus nidulans, UniProt P03880 P03880:235-488, F80K,L233K,K227M)
T2 sequence: T1 sequence with K171Q

T3: I-AniI Y2 K227M nickase (in cell) (Aspergillus nidulans, UniProt P03880 P03880:235-488, F13Y,F80K,S111Y,L232K,K227M)
T3 sequence: T1 sequence with F13Y, S111Y, K171Q, L232K, K233L

T4: I-AniI HyperK (in cell) (Aspergillus nidulans, UniProt P03880 P03880:235-488, F80K,L232K)
T4 sequence: T1 sequence with K171Q, M227K, L232K, K233L

T5: I-AniI Y2 (in cell) (Aspergillus nidulans, UniProt P03880 P03880:235-488, F13Y,F80K,S111Y,L232K)
T5 sequence: T1 sequence with F13Y, S111Y, K171Q, M227K, L232K, K233L

B1: I-AniI Lib4 target site (dsDNA)
DNA 1: TGAGGAGGTTACTCTGTTA
DNA 2: TAACAGAGTAACCTCCTCA
B2: I-AniI native target site (19 bp) (dsDNA)
DNA 1: TTACAGAGAAACCTCCTCA
DNA 2: TGAGGAGGTTTCTCTGTAA

Key:
[1] = target: T1, I-AniI K227M/Q171K (catalytically …); experiment: ITC; catalytically inactive
Method: (§1) Isothermal titration calorimetry (ITC) was used to determine the dissociation constants of native and nicking I-AniI binding to the optimal LIB4 DNA target site (FIG. 4E). Calorimetric experiments were conducted as described previously (Eastberg et al., Biochemistry 46:7215-25, 2007). […] This difference is primarily due to a +5.8 kcal/mol increase in enthalpy change upon nickase binding, implying that the nicking variant has lost contacts to the DNA target—presumably because a hydrogen bond formed by the K227 side chain to the DNA phosphate backbone (Scalley-Kim et al., J. Mol. Biol. 372:1305-1319, 2007) is eliminated.

[2] = target: T2, I-AniI K227M nickase; experiment: ITC; +1.4 kcal/mol in binding free energy vs wild type
Method: as §1

[3] = target: T3, I-AniI Y2 K227M nickase (in cell); experiment: cell_activity; cis recombination, 293T; reporter alone 5.10; settings: tags: N-terminal HA and NLS
Method: (§2) Cells were analyzed on an FACScan® flow cytometer (Becton Dickinson); 75,000 events were gated for linear side and forward scatter to identify cells; and GFP fluorescence was analyzed.
(§3) Reporter assays were developed to measure either intramolecular recombination in cis, or recombination of a chromosomal target mediated by a donor in trans. The assay for recombination in cis used a reporter, DR-GFPAni, based on the direct repeat recombination reporter plasmid (DR)-GFP (Pierce et al., Genes Dev. 13:2633-2638, 1999), which was designed to score only gene conversion, and not repair mediated by NHEJ or single-strand annealing. […] Transfection efficiency was consistently greater than 90%. […] The fraction of GFP⁺ cells ranged from a background of about 3 to about 5% for cells transfected with the reporter alone, up to about 50% in cells transfected simultaneously with the reporter plasmid and an I-AniI Y2 cleavase expression plasmid (FIG. 8C and FIG. 10). […] Expression of the I-AniI nickase stimulated recombination 2.5-fold (FIG. 8C), or approximately one-fourth as efficiently as the I-AniI cleavase.
(§4) ¹The two different series were performed as described in this example.

[4] = target: T4, I-AniI HyperK (in cell); experiment: as above; settings: tags: N-terminal HA and NLS
Method: as §2, §3, §4

[5] = target: T5, I-AniI Y2 (in cell); experiment: as above; settings: tags: N-terminal HA and NLS
Method: as §2, §3, §4

Row | Binder | Kd [1] [nM] | Kd [2] [nM] | activity [3] [% GFP+] | activity [4] [% GFP+] | activity [5] [% GFP+]
1 | B1 | 62 | 71 | – | – | –
2 | B2 | – | – | 12.4 | 11 | 47.5
